Test system: Nc1ncnc2c1ncn2[C@@H]1O[C@H](COP(=O)(O)OP(=O)(O)OP(=O)(O)O)[C@@H](O)[C@H]1O
Assay: purified protein
Conditions: 25 mM MES-Tris pH 6.5, 4 mM MgSO4, 10% glycerol, 25 C

With “E. hirae V1-ATPase (A3B3DF complex) (Enterococcus hirae ATCC 9790)” as the substance, how does the Km read?
Its Km is 400 µM.
